Assay results from patent US20110262347A1 (SALK INSTITUTE FOR BIOLOGICAL STUDIES, published 2011).
No end group written: not given here. *: point of attachment. Biotin = O=C1N[C@H]2[C@H](CS[C@H]2CCCCC(=O)*)N1

T1: p32 protein from mouse liver mitochondria extracts (mouse, UniProt O35658 71-278)
T1 construct: Endogenous protein pulled down from detergent lysate of Balb/c mouse liver mitochondria; also called C1qBP; specific band below 36-kDa
T1 sequence (looked up): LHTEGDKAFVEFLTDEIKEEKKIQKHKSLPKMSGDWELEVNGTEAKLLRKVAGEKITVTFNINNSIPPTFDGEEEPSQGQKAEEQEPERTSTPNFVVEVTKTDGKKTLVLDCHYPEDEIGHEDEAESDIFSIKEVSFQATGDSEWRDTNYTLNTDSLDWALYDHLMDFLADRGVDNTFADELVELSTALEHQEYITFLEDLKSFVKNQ

T2: purified p32 protein
T2 chain: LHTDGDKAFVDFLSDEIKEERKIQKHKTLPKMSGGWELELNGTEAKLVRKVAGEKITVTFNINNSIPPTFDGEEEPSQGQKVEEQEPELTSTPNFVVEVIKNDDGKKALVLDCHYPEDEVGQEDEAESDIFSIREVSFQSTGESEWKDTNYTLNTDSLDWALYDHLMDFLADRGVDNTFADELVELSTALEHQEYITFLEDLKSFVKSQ


Experiments:
[1] = molecular target: T1, p32 protein from mouse liver …; assay: pull-down from mitochondria extracts, mass spectrometry
Procedure: Affinity chromatography. […] Gel bands excised from silver-stained gels were analyzed by MALDI-TOF mass spectrometry at the Burnham Institute for Medical Research Proteomics Resource.

[2] = molecular target: T2, purified p32 protein; assay: comparison of the filing's CGKRK-p32 affinity with a literature value for LyP-1
[3] = molecular target: T2, purified p32 protein; assay: saturation binding, ELISA-type: biotin-CGKRK on immobilized purified p32, streptavidin-HRP (FIG. 19)

binding result [1]	fold affinity relative to LyP-1 [2]	Kd [3]	Binder
binds			CGKRK (Synthetic pentapeptide; also called Cys-Gly-Lys-Arg-Lys; non-labeled CGKRK) [CGKRK peptide]
	15 fold	0.2 µg/mL	Biotin-CGKRK (Labeled form used in the ELISA-type assays on p32-coated wells, detected with streptavidin-HRP; also called biotin-CGKRK; biotin CGKRK) [biotin-labeled CGKRK peptide]
